Results reported in publication PMC10959724 (2024).

B1: wildtype TBK1 (TANK-binding kinase 1), mCitrine-Protein A fusion [not stated] / TRAF family member-associated NF-kB activator (TANK), NanoLuc-tagged [not stated] (parent complex)
chain 1: MQSTSNHLWLLSDILGQGATANVFRGRHKKTGDLFAIKVFNNISFLRPVDVQMREFEVLKKLNHKNIVKLFAIEEETTTRHKVLIMEFCPCGSLYTVLEEPSNAYGLPESEFLIVLRDVVGGMNHLRENGIVHRDIKPGNIMRVIGEDGQSVYKLTDFGAARELEDDEQFVSLYGTEEYLHPDMYERAVLRKDHQKKYGATVDLWSIGVTFYHAATGSLPFRPFEGPRRNKEVMYKIITGKPSGAISGVQKAENGPIDWSGDMPVSCSLSRGLQVLLTPVLANILEADQEKCWGFDQFFAETSDILHRMVIHVFSLQQMTAHKIYIHSYNTATIFHELVYKQTKIISSNQELIYEGRRLVLEPGRLAQHFPKTTEENPIFVVSREPLNTIGLIYEKISLPKVHPRYDLDGDASMAKAITGVVCYACRIASTLLLYQELMRKGIRWLIELIKDDYNETVHKKTEVVITLDFCIRNIEKTVKVYEKLMKINLEAAELGEISDIHTKLLRLSSSQGTIETSLQDIDSRLSPGGSLADAWAHQEGTHPKDRNVEKLQVLLNCMTEIYYQFKKDKAERRLAYNEEQIHKFDKQKLYYHATKAMTHFTDECVKKYEAFLNKSEEWIRKMLHLRKQLLSLTNQCFDIEEEVSKYQEYTNELQETLPQKMFTASSGIKHTMTPIYPSSNTLVEMTLGMKKLKEEMEGVVKELAENNHILERFGSLTMDGGLRNVDCL
chain 2: MDKNIGEQLNKAYEAFRQACMDRDSAVKELQQKTENYEQRIREQQEQLSLQQTIIDKLKSQLLLVNSTQDNNYGCVPLLEDSETRKNNLTLDQPQDKVISGIAREKLPKVRRQEVSSPRKETSARSLGSPLLHERGNIEKTFWDLKEEFHKICMLAKAQKDHLSKLNIPDTATETQCSVPIQCTDKTDKQEALFKPQAKDDINRGAPSITSVTPRGLCRDEEDTSFESLSKFNVKFPPMDNDSTFLHSTPERPGILSPATSEAVCQEKFNMEFRDNPGNFVKTEETLFEIQGIDPIASAIQNLKTTDKTKPSNLVNTCIRTTLDRAACLPPGDHNALYVNSFPLLDPSDAPFPSLDSPGKAIRGPQQPIWKPFPNQDSDSVVLSGTDSELHIPRVCEFCQAVFPPSITSRGDFLRHLNSHFNGET

Variants of: B1
Experiment: LuTHy-BRET; live HEK293 cells; parent: 1; read off a plot

| Variant | ratio to parent |
| --- | --- |
| chain 1 R47H | ~1 |
| chain 1 E696K | ~0.99 |

Variants of: B1
Experiment: LuTHy-BRET donor saturation assay; live HEK293 cells; read at Acceptor:Donor = 4 (highest point of the curve); parent: 0.068; read off a plot

| Variant | response |
| --- | --- |
| chain 1 E696K | ~0.062 |
